Source: the supplement of paper PMC12042874
± gives the uncertainty stated by the source.

Test: amyloid nucleation score (Sup35N fusion, yeast selection) (log enrichment); library NNK1; higher = more nucleation; inactive = no reads after selection
Outline: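 The nucleation score equals the log enrichment of output over input reads from DiMSum, centred on the mode score of non-aggregating sequences. It was computed only for sequences with 100 or more input reads. The reads came from Illumina sequencing of plasmid inserts from psi-negative yeast expressing Sup35N fused to peptides of 20 random codons, induced with 100 μM copper sulfate for 24 hours and grown 7 days at 30°C without adenine and uracil.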

| Substance | amyloid nucleation score |
| --- | --- |
| SAVLFIEFCVLIVVMFSIMM | -0.241 ± 1.2 |
| TESPRCRVPGVELPD | -0.136 ± 0.67 |
| AIQYILEQLEQSRRWGISVH | inactive |
| RVYRYLPYRYERCLDL | -0.504 ± 0.93 |
| RLHMRRRPFVNTHVS | 0.54 ± 0.42 |
| AFFVAVCASWFPGLYRY | 0.298 ± 0.23 |
| AYTCHYQGGGLVNLVDVGYG | 0.353 ± 0.69 |
| VYTSRDGNDLEACGGYSAIV | 0.705 ± 0.71 |
| CSAKNLYVTTQFSLVLFVGS | 6.422 ± 0.052 |
| GLVTRMSQTHPVSYNHITIL | -0.072 ± 0.28 |
| LLVPHYFLEL | 0.222 ± 0.43 |
| SHFVLMLFENSIIVCLEDWE | 1.91 ± 0.57 |
| WVVISMSVRHVLACNLLPIR | -0.013 ± 0.76 |
| LISCIRFYCSVLGVDCTDSV | 0.235 ± 0.39 |
| LRRVMFHRGMCHSVVRNGFG | -1.48 ± 1.6 |
| HRSKS | -0.087 ± 0.32 |
| YGRKISYLKFLKCVDVVLGW | 0.303 ± 0.28 |
| SYMNGKWMSMWVRLWGCLAF | 0.004 ± 0.48 |
| QFYKGRNSFNERSSSNVLRY | inactive |
| DSSCADR | 0.674 ± 0.41 |
| LGVMMFRCVL | 3.79 ± 0.16 |
| TYTPRETTSTCSAYSFYMLK | 1.26 ± 0.15 |
| SDYFYSGKGFFLAMGLSMSR | -1.5 ± 1.8 |
| NFELEHLEICSDVCFGCAAE | 1.12 ± 0.65 |
| GTCYFTDQR | 0.491 ± 0.37 |
| ESKEPFLCIQDITVSSFLPF | -1.69 ± 2.4 |

| Substance | amyloid nucleation score |
| --- | --- |
| IKWLGLTSHRWIYTSGLRIL | inactive |
| RGYMCHCRVVSACFLYRKVQ | -0.044 ± 0.25 |
| GQICAWPITMVWAAGR | -0.391 ± 1.5 |
| SRNRLFVRRVRLANSLSFNA | -0.226 ± 1.1 |
| KSCAHSYEFHHCNCAVVFTL | 6.6 ± 0.051 |
| FCCGSGNSMDMCWFLSIG | 6.93 ± 0.079 |
| QGPVGVSYILHDFIIML | 5.94 ± 0.093 |
| RYGPAVLKSSGAAAVGHS | -0.59 ± 0.59 |
| KYIYNPSPLGSREDDTKACR | 0.937 ± 0.49 |
| YFAHGSWRLSCFLVYWLMRP | inactive |
| LGRGSGYRVLVMYLSVHC | 0.164 ± 0.29 |
| SERDRLSLMRRVAM | -0.153 ± 1.4 |
| KDLLYKSIRW | 1.03 ± 0.27 |
| RSHHIWGY | 0.353 ± 0.48 |
| LCVFVKAGVCWGRTVIRKSG | inactive |
| RPRHIFDNSKVYNMGPYFYD | 1.59 ± 0.56 |
| PFIWDDLAETVLNK | 0.144 ± 0.27 |
| GIKCTRFWQVPNRGDRV | -0.813 ± 0.48 |
| YLVVPERLVANRMVS | -1.68 ± 2.4 |
| HNFWLCAVSYQDRVMFLSVF | 0.497 ± 0.31 |
| YYQRGVDYNIVFLRT | 1.16 ± 0.52 |
| NHSNTCEWRSCRP | 0.551 ± 0.61 |
| RCKFESVKRVS | 1.42 ± 0.54 |
| YKNVCSDSVTLRKPGRVVLL | -0.278 ± 0.67 |
| STSATPYFSFRKIFMASAAS | -0.029 ± 0.57 |
| NSFKCFNDRNEVALMITHRE | -0.526 ± 0.77 |

| Substance | amyloid nucleation score |
| --- | --- |
| SMFCARLDTRVSRTGFPDRG | -0.557 ± 0.61 |
| ETPNAFHVHMSYVYRLRWSR | 2.75 ± 0.17 |
| QHCARTAGVSVARVVVSNCG | 0.161 ± 0.41 |
| HARRRCLDGFDMQGGIFM | 0.047 ± 0.47 |
| FWKTLQIFRTMVVN | 0.055 ± 0.9 |
| GSGSAPCCTIAFMMLFGTEG | -0.057 ± 0.81 |
| SFESVFRHCRVRCCYGKIRQ | 0.685 ± 0.31 |
| IKTMISQY | -0.406 ± 0.25 |
| IWDHCFGPVKCCNIWGKEVG | 5.1 ± 0.079 |
| IGNPMWCQWSAL | 0.721 ± 0.74 |
| TRMLLMIL | -0.921 ± 2.4 |
| CLSRKSWFWHGRWESVSCHP | -0.018 ± 0.53 |
| NSNMGCSVI | -0.596 ± 1 |
| ARTMKDYPLRTYVYYAPAGY | 0.453 ± 0.75 |
| FVLWIY | 0.14 ± 0.47 |
| HRRSLRVGLSDIHLLAACAE | -0.897 ± 1.6 |
| ILAWAMGI | 0.777 ± 0.78 |
| STAAVHCRMRTRFQLRRLRD | -0.086 ± 0.35 |
| VKYWFVVGVVLSWFTER | -0.304 ± 0.24 |
| WYKMSRRGQ | 0.857 ± 1 |
| VLIFWWIMKGRFWVMCSAGY | 0.621 ± 0.89 |
| DYESKSNFPYTQVNAITW | -1.05 ± 1.2 |
| LLDKISNRPTQYGTTVPPVP | 0.573 ± 0.45 |
| GRFFRRLRECNLPHSNIHAY | 0.343 ± 0.42 |
| TCNHYNRVVFQSNVIYLIHV | 2.77 ± 0.15 |
| GFLICVFLSLVGYFGTCLRT | -0.554 ± 0.97 |

| Substance | amyloid nucleation score |
| --- | --- |
| FAGFTGGVLYGVWRLLGSCR | -0.022 ± 0.59 |
| RTSDLFAIMKVLDIMMSYTE | inactive |
| GRWWRLLLYCLVAVLAFVGF | 1.33 ± 0.6 |
| FSASFNGLAAGRLASR | -0.105 ± 1.3 |
| YHTSRYRCTMYMGNSHGAMP | 0.228 ± 0.97 |
| SGSDVILAYTPTPPGDSPVW | 0.645 ± 0.61 |
| VCLGLSQDLHKSYTVRSAT | -0.009 ± 0.41 |
| FHFWEMFTQEAAPIWRWF | -0.139 ± 0.75 |
| LMWKNSGNYKLRCYRVV | -0.065 ± 0.21 |
| NDLYVGLDTYYIRHNLTRWF | 0.447 ± 0.2 |
| RQDARE | 0.004 ± 0.42 |
| FVMFMPFSSHFS | 0.848 ± 0.58 |
| LWTLVQTASSTWALLTGTTN | -0.066 ± 0.65 |
| SLLCLCYV | 7.599 ± 0.059 |
| LDGGIIRRILVIVKCWGRCC | 0.108 ± 0.2 |
| TLFRGMGYSWNVNKPDARKV | -0.403 ± 1.4 |
| LGTKL | 0.601 ± 0.63 |
| SWPLWEVMPRWGARDRGWVG | 0.553 ± 0.93 |
| TCKTHHRGTPGATVFPKDTA | 0.17 ± 0.45 |
| YSNLSCSQTDVRSLR | 0.494 ± 0.49 |
| NTVCSAMRW | 4.14 ± 0.091 |
| LNCNV | 1.24 ± 0.76 |
| RGSVIWRRRWTTESWSSYFG | 1.25 ± 0.72 |
| ECGLGRSKEQSNGSWMCLHR | -0.464 ± 0.54 |
| MERTWFG | 0.276 ± 0.3 |
| RKFVC | -0.729 ± 1.7 |

| Substance | amyloid nucleation score |
| --- | --- |
| RFILPVVGSSHLINSLADSL | -0.8 ± 1.4 |
| FMHAFRNQRLNLAGLGFRVA | 0.573 ± 0.62 |
| SLVNFVAMGARDRIPCVYKR | -1.03 ± 2.4 |
| MCNDGSYYAILACGVSLRVL | inactive |
| CTARLIA | 0.13 ± 0.28 |
| FGCNELNR | 0.826 ± 0.5 |
| LCLGCGYGEETI | 0.069 ± 0.37 |
| DVKCRLWIHAL | -0.066 ± 0.54 |
| YRPWMRYLTLIGNYRHAGHS | 0.633 ± 0.62 |
| VFHNYFLRTYTNRRARSVSI | 2.86 ± 0.14 |
| SYMSLAFIS | 0.004 ± 0.69 |
| CWPSRQF | 0.373 ± 0.94 |
| LHIFLTLHNQHVWARNGGKL | 0.603 ± 0.35 |
| VRADFALTWLLGVCRVWCCR | 0.247 ± 0.36 |
| WMFTGVRLVSK | 0.3 ± 0.43 |
| NCCGSLETSSVSVVYLMWGW | 5.917 ± 0.05 |
| SNSFRLGGSNNYPMSSAPGL | -1.74 ± 2.4 |
| VYSSMIVLKDALIPSSKTDA | 0.999 ± 0.51 |
| LTFLYLYWNFNIYGIYGTTI | 0.91 ± 0.19 |
| IDHSNTIFMSQCRRLSVPE | -0.889 ± 1.7 |
| VIGSCRTCMS | 0.135 ± 0.3 |
| SLKGFADSVSGSVGLKDKAV | 0.502 ± 0.61 |
| GLEGIRIGWSSLVSMCLWRG | -0.016 ± 0.33 |
